Data as given in patent US20160355564.

Tested on: recombinant proinsulin protein

tissue transglutaminase
substrate of the deamidase in test tube: recombinant proinsulin protein was shown to be a substrate for TG2
